Measured values taken from patent US20250235545A1, “POLYPEPTIDE CONJUGATE AND USE THEREOF” (SHANGHAI CHIXI BIOMEDICAL TECHNOLOGY CO., LTD, priority 2024, published 2025).
In brackets after ≈: the same amount, converted by molar mass. Where two headings read alike, the source gives them in different places. Where a SMILES comes first, the peptide text is derived from it. The star is where a group is joined. NEt(2-(20S-CPT-7-yl)ethyl) = CCN(CCc1c2c(nc3ccccc13)-c1cc3c(c(=O)n1C2)COC(=O)[C@]3(O)CC)*; Belotecan = CC[C@@]1(O)C(=O)OCc2c1cc1n(c2=O)Cc2c-1nc1ccccc1c2CCN(C(C)C)*; X1 = CC[C@@]1(O)C(=O)OCc2c1cc1n(c2=O)Cc2c-1nc1ccccc1c2CCN(C1CCC1)*; X3 = CC[C@@]1(O)C(=O)OCc2c1cc1n(c2=O)Cc2c-1nc1ccccc1c2CCN(C1CC1)*; Propanoyl(3-maleimido) = O=C1C=CC(=O)N1CCC(=O)*; PEG6 = NCCOCCOCCOCCOCCOCCOCCC(=O)O

Legend:
[1] = system: colo320 (colorectal cancer tissue); assay: cells; format: cell-based; settings: CCK8, 48 h; Table 6
How it was run: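 Colo320 cells, 5,000 per well, exposed to drug concentration series for 48 h at 37 °C, 5% CO2 (0.1% DMSO controls). Viability by CCK8, absorbance at 450 nm after about 2 h. Survival rates and IC50 calculated.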

[2] = system: sarcoma SJSA-1 tumor model; assay: Efficacy in animal model of sarcoma SJSA-1, 30 mg/kg once a week for two weeks (Example 40); format: in vivo, BALB/c mice; settings: 30 mg/kg once a week for two weeks
Method: Test objective: To further compare the antitumor efficacy of different polypeptide Linkers in an animal tumor model of sarcoma SJSA-1.
(§1) Test drug: Polypeptide conjugate and normal saline control group.
The control group was administered normal saline. Administration was performed once a week for two weeks.

A2780 (ovarian cancer) = assay: cells; format: cell-based; settings: CCK8, 48 h; Table 6
How it was run: (§2)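 Viability read by CCK8 absorbance at 450 nm (~2 h stain) after 48 h drug treatment at 37° C. of 5,000 cells/well, triplicate wells, in RPMI1640 or DMEM high-glucose medium containing 10% FBS and 1 mM pyruvate. Survival relative to 0.1% DMSO controls gave IC50 values.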

[3] = system: SKBR3 (breast cancer tissue); assay: cells; format: cell-based; settings: CCK8, 48 h; Table 6
How it was run: as §2

[4] = system: A549 (non-small cell lung cancer); assay: cells; format: cell-based; settings: CCK8, 48 h; Table 6
How it was run: as §2

SJSA-1 (sarcoma tissue) = assay: cells; format: cell-based; settings: CCK8, 48 h; Table 6
How it was run: as §2

[5] = Tumor homogenate activation efficiency, sarcoma tissue (Examples 28, 37); format: in vitro ADME; settings: pH 5.0, 37° C., 2 h; Table 10
How it was run: (§3)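 Each conjugate, dissolved at 1 mg/ml in acidic MES saline (pH 5.0), was exposed to 100 μg homogenate for 2 h at 37° C; released Belotecan was quantified by HPLC peak areas.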

[6] = Tumor homogenate activation efficiency, colorectal cancer tissue (Example 37); format: in vitro ADME; settings: pH 5.0, 37° C., 2 h; Table 10
Method: Buffer preparation: 50 mM PH buffer (MES), 250 mM NaCl, pH adjusted to 5.0 with 0.5 M of sodium hydroxide.
The polypeptide conjugate was prepared into a 1 mg/ml solution with pH 5.0 buffer, 100 μg of tumor tissue homogenate was added, (the tumor tissue homogenate was the homogenate of tumor tissues prepared with a Jingxin F6/10 handheld homogenizer), and the solution was placed at 37° C. for 2 h. The tumor tissue homogenate could effectively activate the polypeptide conjugate and release Belotecan, and the activation efficiencies of the drugs in tumor tissues were compared by HPLC allowing determination of a decrease in the compounds and an increase in Belotecan:
Release percentage=peak area of Belotecan/total peak area of Belotecan and all other Belotecan-containing compounds

[7] = Homogenate activation efficiency, heart tissue (Examples 28, 37); format: in vitro ADME; settings: pH 5.0, 37° C., 2 h; Table 10
[8] = Tumor homogenate activation efficiency, ovarian cancer tissue (Examples 28, 37); format: in vitro ADME; settings: pH 5.0, 37° C., 2 h; Table 10
How it was run: as §3

[9] = Tumor homogenate activation efficiency, non-small cell lung cancer tissue (Examples 28, 37); format: in vitro ADME; settings: pH 5.0, 37° C., 2 h; Table 10
How it was run: as §3

[10] = MTD determination in mice (Examples 27, 36, 44); format: in vivo; settings: female, mouse, in vivo; mice, monitored for 14 d; Table 9
Text: Test animals: 6-8 weeks old mice, all female; mice were grouped randomly, with six mice in each group, administered with drugs at different concentration gradients separately and monitored for 14 d. A mouse was euthanized at a loss of 20% of its initial weight and deemed to have died of poisoning.

[11] = system: colo320 colorectal cancer tumor model
How it was run: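 Dosing was once a week for four weeks, with saline as control, in randomized groups of three mice. Groups were formed after subcutaneous colo320 xenografts (7.5×10^6 cells, right chest) grew to ≥120 mm^3 in female 6–8-week-old BALB/c nude mice.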

[12] = system: sarcoma SJSA-1 tumor model; settings: Table 7
How it was run: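 Female BALB/c nude mice (6-8 weeks) bearing subcutaneous right-chest SJSA-1 xenografts from 2×10^7 cells were randomized, three per group, once tumors reached at least 100 mm^3. Treatment given once a week for three weeks starting day 1; saline controls.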

[13] = Tumor homogenate activation efficiency, breast cancer tissue (Examples 28, 37); format: in vitro ADME; settings: pH 5.0, 37° C., 2 h; Table 10
How it was run: as §3

[14] = system: A2780 ovarian cancer tumor model; assay: Efficacy in animal model of A2780 ovarian cancer, 30 mg/kg once a week for two weeks (Example 41); format: in vivo, BALB/c mice; settings: Day 14
Method: Test objective: To further compare the antitumor efficacy of different polypeptide Linkers in an animal tumor model of A2780 ovarian cancer.
as §1
8×10^6 corresponding cells were injected into right axillas of nude mice subcutaneously. […] The negative control group was administered normal saline. Administration was performed once a week for two weeks.

[15] = 45 mg/kg once a week for four weeks, Table 8
[16] = Table 14 (Example 43), dose 45 mg/kg, once a week for four weeks, BALB/c mice
[17] = 15 mg/kg once a week for three weeks
[18] = 45 mg/kg once a week for three weeks
[19] = 15 mg/kg once a week for four weeks, Table 8

SMILES | IC50 Colorectal cancer tissue (colo320) [1] [µg/mL] | Mouse weight (%) on Day 14 ([2]; Day 14) | IC50 Ovarian cancer tissue (A2780) (A2780 (ovarian cancer)) [µg/mL] | IC50 Breast cancer tissue (SKBR3) [3] [µg/mL] | IC50 Non-small cell lung cancer tissue (A549) [4] [µg/mL] | IC50 Sarcoma tissue (SJSA-1) (SJSA-1 (sarcoma tissue)) [µg/mL] | Percentage of release efficiency (%) Sarcoma tissue (SJSA1) [5] [%] | Percentage of release efficiency (%) Colorectal cancer tissue (colo320) [6] [%] | Percentage of release efficiency (%) Heart tissue [7] [%] | Percentage of release efficiency (%) Ovarian cancer tissue (A2780) [8] [%] | Percentage of release efficiency (%) Non-small cell lung cancer tissue (A549) [9] [%] | MTD at 14 d [10] [mg/kg] | Mouse weight (%) [11, 15] | Mouse weight (%) [11, 16] | Mouse weight (%) [12, 17] | Mouse weight (%) [12, 18] | Percentage of release efficiency (%) Breast cancer tissue (SKBR3) [13] [%] | Mouse weight (%) on Day 14 [14] | Mouse weight (%) [11, 19] | further results
CCN(CCc1c2c(nc3ccccc13)-c1cc3c(c(=O)n1C2)COC(=O)[C@]3(O)CC)C(=O)[C@H](CC(C)C)NC(=O)[C@H](CC(N)=O)NC(=O)[C@H](C)NC(=O)[C@H](C)NC(=O)CCOCCOCCOCCOCCOCCOCCNC(=O)CCN1C(=O)C=CC1=O [MI-6PEG-AANL-D2] ({Propanoyl(3-maleimido)-PEG6}-AANL-{NEt(2-(20S-CPT-7-yl)ethyl)}) | 4.65 (≈ 3.65 µM) | +1.9% | 1.31 (≈ 1.03 µM) | 3.28 (≈ 2.57 µM) | 2.57 (≈ 2.02 µM) | 1.58 (≈ 1.24 µM) | 67.1 | 65 | 0.9 | 71.3 | 73.6 | 200 | +19% | +19% | +41% | +24% | 73.5 | – | – | SJSA-1 (sarcoma tissue) mean tumor volume (mm^3) Day 1 ([2]; Day 1): 136.59 mm^3; SJSA-1 (sarcoma tissue) mean tumor volume (mm^3) Day 4 ([2]; Day 4): 465.17 mm^3; SJSA-1 (sarcoma tissue) mean tumor volume (mm^3) Day 7 ([2]; Day 7): 891.36 mm^3; SJSA-1 (sarcoma tissue) mean tumor volume (mm^3) Day 10 ([2]; Day 10): 1320.55 mm^3; SJSA-1 (sarcoma tissue) growth rate (%) on Day 14 ([2]; Day 14): 1623.94%; SJSA-1 (sarcoma tissue) mean tumor volume (mm^3) Day 14 ([2]; Day 14): 2218.14 mm^3; colo320 (colorectal cancer cell) growth rate (%) [11, 15]: 760.87%; colo320 (colorectal cancer cell) mean tumor volume (mm^3) [11, 15]: 894.4 mm^3; colo320 (colorectal cancer cell) growth rate (%) [11, 16]: 760.87%; colo320 (colorectal cancer cell) mean tumor volume (mm^3) [11, 16]: 894.4 mm^3; SJSA-1 (sarcoma tissue) growth rate (%) [12, 17]: 1316.56%; SJSA-1 (sarcoma tissue) mean tumor volume (mm^3) [12, 17]: 1645.7 mm^3; SJSA-1 (sarcoma tissue) growth rate (%) [12, 18]: 964.08%; SJSA-1 (sarcoma tissue) mean tumor volume (mm^3) [12, 18]: 1213.3 mm^3
CC[C@@]1(O)C(=O)OCc2c1cc1n(c2=O)Cc2c-1nc1ccccc1c2CCN(C(=O)[C@H](CC(C)C)NC(=O)[C@H](CC(N)=O)NC(=O)[C@H](C)NC(=O)[C@H](C)NC(=O)CCOCCOCCOCCOCCOCCOCCNC(=O)CCN1C(=O)C=CC1=O)C1CC1 [MI-6PEG-AANL-D6] ({Propanoyl(3-maleimido)-PEG6}-AANL-X3) | 1.87 (≈ 1.45 µM) | −2.5% | 0.70 (≈ 0.544 µM) | 2.02 (≈ 1.57 µM) | 1.38 (≈ 1.07 µM) | 0.51 (≈ 0.396 µM) | 69.5 | 73.5 | 3 | 76.2 | 66.1 | 120 | +5% | – | +19% | +17% | 66.9 | +5.2% | +25% | –
CC[C@@]1(O)C(=O)OCc2c1cc1n(c2=O)Cc2c-1nc1ccccc1c2CCN(C(=O)[C@H](CC(C)C)NC(=O)[C@H](CC(N)=O)NC(=O)[C@H](C)NC(=O)[C@H](C)NC(=O)CCOCCOCCOCCOCCOCCOCCNC(=O)CCN1C(=O)C=CC1=O)C(C)C [MI-6PEG-AANL-Belotecan] ({Propanoyl(3-maleimido)-PEG6}-AANL-Belotecan) | 2.74 (≈ 2.12 µM) | −1.3% | 0.91 (≈ 0.706 µM) | 2.48 (≈ 1.92 µM) | 1.55 (≈ 1.2 µM) | 0.90 (≈ 0.698 µM) | 75.5 | 75.6 | 2.5 | 81.2 | 76.5 | 150 | +2% | +2% | +24% | +21% | 69.5 | – | +22% | –
CC[C@@]1(O)C(=O)OCc2c1cc1n(c2=O)Cc2c-1nc1ccccc1c2CCN(C(=O)[C@H](CC(C)C)NC(=O)[C@H](CC(N)=O)NC(=O)[C@H](C)NC(=O)[C@H](C)NC(=O)CCOCCOCCOCCOCCOCCOCCNC(=O)CCN1C(=O)C=CC1=O)C1CCC1 [MI-6PEG-AANL-D7] ({Propanoyl(3-maleimido)-PEG6}-AANL-X1) | 2.48 (≈ 1.91 µM) | −3.3% | 0.91 (≈ 0.699 µM) | 2.01 (≈ 1.54 µM) | 1.81 (≈ 1.39 µM) | 1.33 (≈ 1.02 µM) | 71.7 | 76.4 | 2.2 | 66.7 | 74.6 | 150 | +9% | – | +12% | +19% | 72.3 | +4.8% | +29% | –
